Reference: US20190000928A1
Positions of bridges follow the written chain, without caps; N, C: chain ends. Non-standard residues stand in square brackets, D forms with d. No end group written: not given here. L5 = not defined here; L6 = not defined here

Assays:
Experiment in all cases: cell-based or functional assay
[1] = biological target: human glucagon-like peptide 2 receptor (GLP-2R) (human) (UniProt O95838)
[2] = biological target: human glucagon-like peptide 1 receptor (GLP-1R) (human) (UniProt P43220)
[3] = biological target: human glucagon receptor (GCGR) (human) (UniProt P47871)
Chain of human glucagon receptor (GCGR) (human) (P47871 26-477): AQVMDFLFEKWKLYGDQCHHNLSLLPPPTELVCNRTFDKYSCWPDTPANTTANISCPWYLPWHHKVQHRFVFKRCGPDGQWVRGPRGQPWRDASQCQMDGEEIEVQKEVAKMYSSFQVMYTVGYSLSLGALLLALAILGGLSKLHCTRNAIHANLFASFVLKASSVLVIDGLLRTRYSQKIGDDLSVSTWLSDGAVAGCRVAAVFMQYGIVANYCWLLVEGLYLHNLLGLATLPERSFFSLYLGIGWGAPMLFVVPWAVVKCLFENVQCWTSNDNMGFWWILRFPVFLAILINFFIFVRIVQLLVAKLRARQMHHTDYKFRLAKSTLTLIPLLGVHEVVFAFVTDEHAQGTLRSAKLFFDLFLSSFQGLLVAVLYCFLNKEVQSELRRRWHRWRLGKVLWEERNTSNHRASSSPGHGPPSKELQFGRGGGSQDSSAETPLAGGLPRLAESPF

Chain of human glucagon-like peptide 1 receptor (GLP-1R) (human) (P43220 24-463): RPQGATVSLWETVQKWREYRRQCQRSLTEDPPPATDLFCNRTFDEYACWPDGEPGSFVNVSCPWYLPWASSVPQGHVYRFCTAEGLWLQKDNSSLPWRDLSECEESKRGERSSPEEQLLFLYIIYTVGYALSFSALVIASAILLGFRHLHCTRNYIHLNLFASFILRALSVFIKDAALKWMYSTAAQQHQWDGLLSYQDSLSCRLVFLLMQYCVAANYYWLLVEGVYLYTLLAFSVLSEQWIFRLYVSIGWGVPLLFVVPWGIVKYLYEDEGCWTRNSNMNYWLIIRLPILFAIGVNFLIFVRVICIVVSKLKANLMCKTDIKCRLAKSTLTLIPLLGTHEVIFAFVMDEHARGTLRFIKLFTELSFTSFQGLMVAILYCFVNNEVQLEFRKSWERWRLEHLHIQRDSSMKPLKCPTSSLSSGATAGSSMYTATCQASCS
Chain of human glucagon-like peptide 2 receptor (GLP-2R) (human) (O95838 whole entry): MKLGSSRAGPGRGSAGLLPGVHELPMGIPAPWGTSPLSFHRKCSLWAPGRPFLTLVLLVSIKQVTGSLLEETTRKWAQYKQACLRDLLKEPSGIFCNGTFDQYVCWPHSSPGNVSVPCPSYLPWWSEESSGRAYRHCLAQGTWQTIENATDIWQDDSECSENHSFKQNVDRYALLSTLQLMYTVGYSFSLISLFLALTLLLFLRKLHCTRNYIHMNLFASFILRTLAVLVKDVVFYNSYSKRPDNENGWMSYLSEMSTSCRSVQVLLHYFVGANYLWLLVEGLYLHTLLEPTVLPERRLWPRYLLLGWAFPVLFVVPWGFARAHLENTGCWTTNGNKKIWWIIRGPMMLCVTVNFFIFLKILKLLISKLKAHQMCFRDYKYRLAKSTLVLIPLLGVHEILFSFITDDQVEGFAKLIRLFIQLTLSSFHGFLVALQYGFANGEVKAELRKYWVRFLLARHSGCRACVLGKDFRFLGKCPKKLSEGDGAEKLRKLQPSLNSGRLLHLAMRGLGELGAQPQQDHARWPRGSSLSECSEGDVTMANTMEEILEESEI

Row | Binder | GLP-2R (EC50, nM); CRE luciferase reporter in HEK293-GLP-2R-CRE cells [1] [nM] | GLP-1R (EC50, nM); CRE luciferase reporter in HEK293-GLP-1R-CRE cells [2] [nM] | GCGR (EC50, nM); CRE luciferase reporter in HEK293-GCGR-CRE cells [3] [nM]
1 | HGDGSFSDEMKTILDNLKARDFINWLIQTKITD (linker 11-18 via L6; reading uncertain; also: fatty acid attached to the staple, identity not given here) [mTA 7: GLP-2 (G) and L6] | 0.068 |  | 
2 | H[dS]QGTFTSDYSKYLDEKAAKEFIKWLLNGGPSSGAPPPS (linker 17-24 via L5; reading uncertain; also: fatty acid attached to the staple, identity not given here, printed as HsQGTFTSDYSKYLDEXAAKEFIXWLLNGGPSSGAPPPS) [mTA 6: GLP-1/Glucagon (D) and L5] |  | 0.03 | 0.62
